The numbers were not newly measured in publication PMC11809415, “Structure of the F-tractin–F-actin complex” (The Journal of Cell Biology, 2025), which cites them from elsewhere.

This data set concerns the target F-actin (Oryctolagus cuniculus) (UniProt P68135).

Where “and” joins values, the source holds several entries; their conditions need not be identical. Equal entries are not always repeated.

As usually defined, the Kd is the free concentration of one partner at which half of the binding sites on the other are occupied at equilibrium, for simple one-to-one binding. In the case of Lifeact (from UniProt Q08641), the Kd is 14.9 µM and 5.8 µM.
